In PMC4777398 (PLoS ONE, 2016) one finds Kd data, which are given here for one molecule.

This assay has as its target pre-dimerized IMPα2/IMPβ1 heterodimer (GST-fused mouse proteins) (mouse, UniProt P52293 1-529; P70168 1-876). Kind of assay: AlphaScreen or HTRF. The following applies: both partners purified. Background: Alpha assays give light when donor and acceptor beads are brought close together.

B1: His6-GFP-fused wt P-CTD (rabies virus P-protein C-terminal domain) (domain or fragment)
chain: VAQVAPGPPALEWSATNEEDDLSVEAEIAHQIAESFSKKYKFPSRSSGIFLYNFEQLKMNLDDIVKEAKNVPGVTRLAHDGSKIPLRCVLGWVALANSKKFQLLVEADKLSKIMQDDLNRYTSC
A word on the Kd: it is the constant that tells how readily two partners part at equilibrium. Molecule B1 returned a Kd of 1.7 ± 0.6 nM.
